From publication PMC4449183, “Structural-Functional Analysis Reveals a Specific Domain Organization in Family GH20 Hexosaminidases” (PLoS ONE, 2015)

B1: Construct F (546–776) of B. bifidum lacto-N-biosidase, the single lectin domain (domain or fragment, Bifidobacterium bifidum, UniProt B3TLD6 546-776, looked up)
chain: LITTPDGYYQMKDTVSGKCLALFTGSKHLDVVTQVGARPELRNCADVSVGQDQRNTANERNTQKWQIRADKDGKYTISPALTQQRLAIATGNEQNIDLETHRPAAGTVAQFPADLVSDNALFTLTGHMGMSATVDSKTVNPASPSKITVKVRAASNANTGDVTVTPVVPEGWEIKPGSVSLKSIPAGKAAIAYFNVVNTTGTGDATVQFKLTNTKTGEELGTTSVALTGSL
B2: Construct A (residues 40–528) of B. bifidum lacto-N-biosidase, GH20b-GH20-α (domain or fragment, Bifidobacterium bifidum, UniProt B3TLD6 40-528, looked up)
chain: AGYSATAPVNLTRPATVPSMDGWTDGTGAWTLGEGTRVVSSDALAARAQSLASELTKFTDVDIKAATGSATGKDISLTLDASKKAELGDEGFKLNIGSKGLEVIGATDIGVFYGTRSVSQMLRQGQLTLPAGTVATKPKYKERGATLCACQINISTDWIDRFLSDMADLRLNYVLLEMKLKPEEDNTKKAATWSYYTRDDVKKFVKKANNYGIDVIPEINSPGHMNVWLENYPEYQLADNSGRKDPNKLDISNPEAVKFYKTLIDEYDGVFTTKYWHMGADEYMIGTSFDNYSKLKTFAEKQYGAGATPNDAFTGFINDIDKYVKAKGKQLRIWNDGIVNTKNVSLNKDIVIEYWYGAGRKPQELVQDGYTLMNATQALYWSRSAQVYKVNAARLYNNNWNVGTFDGGRQIDKNYDKLTGAKVSIWPDSSYFQTENEVEKEIFDGMRFISQMTWSDSRPWATWNDMKADIDKIGYPLDIREYDYTPVDA
notes: Lacto-N-biosidase (LnbB), Bifidobacterium bifidum, residues 40-528 (GH20b and GH20 domains with the extra α-helix); synthetic codon-optimised gene in pET28a+ (NdeI/Bpu1102); Mainly dimeric in solution by gel filtration; theoretical mass 57 kDa; also called GH20b-GH20-α construct; source: E. coli BL21 (DE3) star, purified (Ni2+ HiTrap chelating column, Superdex 200)

How the values were obtained:
[1] = molecular target: T1, Construct A (residues 40–528) of B. bifidum lacto-N-biosidase, GH20b-GH20-α (Bifidobacterium bifidum (strain DSM …, UniProt B3TLD6)); test: SEC co-elution with SDS-PAGE, plus activity complementation assay
T1 chain: B2 chain

[2] = molecular target: B2; test: cell-based or functional assay
[3] = molecular target: the molecule itself; test: SEC; single purified proteins on XK16/60 Superdex 200 in buffer A (Na2HPO4 20 mM, NaCl 150 mM, pH 7.5)

Row | Binder | binding result [1] | hydrolytic activity on p-nitrophenyl β-lacto-N-bioside of 50 nM construct A with 25 nM-500 nM construct F (pH 4.5, 30°C), relative to the full length enzyme; levels off at a molar ratio of 1:6 [2] [%] | stoichiometry N [3]
1 | B1 | binds | 11 | –
2 | B2 | – | – | 2
